*1 amine or outer side, *2 acyl side, *3 side chain or, on linkers, in order; H or OH if unused. Primed or numbered codes have the meaning given here. Where no end group is shown, it is not given here. The star is where a group is joined. KMUS = cross-linking reagent joining N-terminal amine to thiol PEG, O=C1CC([*:3])C(=O)N1CCCCCCCCCCC(=O)[*:2]; GMBS = cross-linking reagent joining N-terminal amine to thiol PEG, O=C1CC([*:3])C(=O)N1CCCC(=O)[*:2]; SMCC = cross-linking reagent joining N-terminal amine to thiol PEG; Hexanoyl(6-succinimido-3yl) = O=C1CC([*:1])C(=O)N1CCCCCC(=O)[*:2]; AMBz = omega-aminocarboxylic acid linker (structure only drawn); AU″ = omega-aminocarboxylic acid linker (structure only drawn); ACP = omega-aminocarboxylic acid linker; Traut's reagent = N=C(CCCS)*; AB = not defined here; AD = not defined here; AP = not defined here; AU = not defined here
T1: human FM3 (NMUR1) (human)
T1 chain: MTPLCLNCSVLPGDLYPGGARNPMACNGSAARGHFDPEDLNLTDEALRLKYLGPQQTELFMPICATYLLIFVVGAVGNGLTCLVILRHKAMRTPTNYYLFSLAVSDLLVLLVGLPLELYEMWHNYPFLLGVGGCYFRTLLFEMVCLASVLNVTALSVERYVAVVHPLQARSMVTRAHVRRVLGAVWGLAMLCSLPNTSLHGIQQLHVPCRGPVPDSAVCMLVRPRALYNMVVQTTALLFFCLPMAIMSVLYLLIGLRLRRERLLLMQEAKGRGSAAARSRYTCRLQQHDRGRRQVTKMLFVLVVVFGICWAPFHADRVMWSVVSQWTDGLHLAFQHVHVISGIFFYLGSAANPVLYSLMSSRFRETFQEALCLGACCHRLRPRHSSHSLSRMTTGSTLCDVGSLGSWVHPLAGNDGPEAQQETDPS

B1: 125I-NMU8 (radiation labeled ligand) (peptide)
peptide: YFLFRPRN-NH2
modifications: also: 125I label (position not given here)
B2: (PEG20k)2(AB)-NMU-8 (peptide)
peptide: {(PEG20k)2-AB}-YFLFRPRN-NH2
modifications: reading uncertain; also: printed as (PEG20k)2(AB)-NMU-8
B3: PEG30k(AB)-NMU-8 (peptide)
peptide: {PEG 30 kDa-AB}-YFLFRPRN-NH2
modifications: reading uncertain; also: printed as PEG30k(AB)-NMU-8
B4: (PEG20k)2(AP)-NMU-8 (peptide)
peptide: {(PEG20k)2-AP}-YFLFRPRN-NH2
modifications: reading uncertain; also: printed as (PEG20k)2(AP)-NMU-8
B5: PEG30k(AP)-NMU-8 (peptide)
peptide: {PEG 30 kDa-AP}-YFLFRPRN-NH2
modifications: reading uncertain; also: printed as PEG30k(AP)-NMU-8
B6: PEG30k(ACP)-NMU-8 (peptide)
peptide: {PEG30k-ACP}-YFLFRPRN-NH2
B7: PEG30k(NH-ACP)-NMU-8 (peptide)
peptide: {PEG 30 kDa-ACP}-YFLFRPRN-NH2
modifications: also: PEG-aldehyde bound by reductive amination (NH linkage)
B8: (PEG20k)2(AU)-NMU-8 (peptide)
peptide: {(PEG20k)2-AU}-YFLFRPRN-NH2
modifications: reading uncertain; also: printed as (PEG20k)2(AU)-NMU-8
B9: PEG30k(SMCC)-NMU-8 (peptide)
peptide: {PEG 30 kDa-SMCC}-YFLFRPRN-NH2
B10: (PEG20k)2(AMBz)-NMU-8 (peptide)
peptide: {(PEG20k)2-AMBz}-YFLFRPRN-NH2
B11: PEG30k(AMBz)-NMU-8 (peptide)
peptide: {PEG 30 kDa-AMBz}-YFLFRPRN-NH2
B12: (PEG20k)2(ACP)-NMU-8 (peptide)
peptide: {(PEG20k)2-ACP}-YFLFRPRN-NH2
B13: PEG30k(NH-AMBz)-NMU-8 (peptide)
peptide: {PEG 30 kDa-AMBz}-YFLFRPRN-NH2
modifications: also: PEG attached by reductive amination (NH link) to linker
B14: (PEG20k)2-NMU-8 (peptide)
peptide: {(PEG20k)2}-YFLFRPRN-NH2
B15: (PEG20k)2(AD)-NMU-8 (peptide)
peptide: {(PEG20k)2-AD}-YFLFRPRN-NH2
modifications: reading uncertain; also: printed as (PEG20k)2(AD)-NMU-8
B16: PEG30k(EMCS)-NMU-8 (peptide)
peptide: {PEG 30 kDa-Hexanoyl(6-succinimido-3yl)}-YFLFRPRN-NH2
B17: PEG30k-Cys-NMU-8 (peptide)
peptide: C(PEG 30 kDa)FFLFRPRN-NH2
B18: PEG30k-NH-NMU-8 (peptide)
peptide: {PEG 30 kDa}-YFLFRPRN-NH2
B19: PEG30k(AD)-NMU-8 (peptide)
peptide: {PEG 30 kDa-AD}-YFLFRPRN-NH2
modifications: reading uncertain; also: printed as PEG30k(AD)-NMU-8
B20: PEG30k(KMUS)-NMU-8 (peptide)
peptide: {PEG 30 kDa-KMUS}-YFLFRPRN-NH2
B21: PEG30k(NH-AB)-NMU-8 (peptide)
peptide: {PEG 30 kDa-AB}-YFLFRPRN-NH2
modifications: reading uncertain; also: PEG attached by reductive amination (NH link) to linker, printed as Try-Phe-Leu-Phe-Arg-Pro-Arg-Asn-NH2
B22: PEG30k(NH-AP)-NMU-8 (peptide)
peptide: {PEG 30 kDa-AP}-YFLFRPRN-NH2
modifications: reading uncertain; also: printed as PEG30k(NH-AP)-NMU-8
B23: PEG30k(NHAc)-Cys-NMU-8 (peptide)
peptide: C(PEG 30 kDa)FFLFRPRN-NH2
B24: PEG30k(NH-AU)-NMU-8 (peptide)
peptide: {PEG 30 kDa-AU″}-YFLFRPRN-NH2
B25: PEG30k(NH-AD)-NMU-8 (peptide)
peptide: {PEG 30 kDa-AD}-YFLFRPRN-NH2
modifications: reading uncertain; also: PEG-aldehyde bound by reductive amination (NH linkage), printed as PEG30k(NH-AD)-NMU-8
B26: PEG30k(AU)-NMU-8 (peptide)
peptide: {PEG 30 kDa-AU″}-YFLFRPRN-NH2
B27: PEG30k(GMBS)-NMU-8 (peptide)
peptide: {PEG 30 kDa-GMBS}-YFLFRPRN-NH2
B28: NMU-8 (peptide)
peptide: YFLFRPRN-NH2
B29: PEG30k-NMU-8 (peptide)
peptide: {PEG 30 kDa}-YFLFRPRN-NH2
B30: PEG30k(Traut)-NMU-8 (peptide)
peptide: {PEG‑maleimide 30 kDa-Traut's reagent}-YFLFRPRN-NH2

Biological target: T1, human FM3 (NMUR1)
Experiment: Scatchard analysis, radioligand filter binding, human FM3/CHO membrane fraction
Method: (§1) The protein concentrations in the FM3 and TGR1 membrane fractions were 12 and 22 μg/ml, respectively.

Kd [nM]	Binder
164000	B1

These binders were tested against human TGR1 (NMUR2) (human) (assay: Scatchard analysis, radioligand filter binding, human TGR1/CHO membrane fraction).
Method: as §1

Chain of human TGR1 (NMUR2) (human) (chain, as listed by the source): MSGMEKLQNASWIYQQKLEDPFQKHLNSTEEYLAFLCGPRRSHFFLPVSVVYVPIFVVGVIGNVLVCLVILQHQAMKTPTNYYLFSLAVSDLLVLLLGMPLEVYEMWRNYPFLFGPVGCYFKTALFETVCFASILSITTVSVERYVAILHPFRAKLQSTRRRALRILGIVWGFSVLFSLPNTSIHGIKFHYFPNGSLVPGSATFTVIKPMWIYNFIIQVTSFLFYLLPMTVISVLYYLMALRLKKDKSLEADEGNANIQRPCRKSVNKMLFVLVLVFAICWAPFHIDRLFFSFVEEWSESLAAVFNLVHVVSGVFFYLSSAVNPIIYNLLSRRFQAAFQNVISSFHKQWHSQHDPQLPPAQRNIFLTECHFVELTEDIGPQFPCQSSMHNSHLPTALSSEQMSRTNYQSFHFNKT

Kd [nM]	Binder
135000	B1

Biological target: T1, human FM3 (NMUR1)
Experiment: competition with 125I-NMU8, membrane fraction, filter binding; only one value in the row, read as the FM3 column
Method: as §1
(§2) Namely, dilution strings of NMU derivatives and PEG conjugates were provided and diluted membrane fraction solutions (200 μl) were added. The mixture was thoroughly blended with a Vortex and the labeled ligand 2 μl (final concentration […]) was added to carry out the reaction at 25° C. for 60 min. According to the aforementioned operations, the amount of binding of the labeled ligand remaining in the filter was measured and the IC50 values were calculated using graph pad PRISM (FIG. 4A (FM3 receptor binding), FIG. 4B (TGR1 receptor binding), FIG. 4C (FM3 receptor binding), FIG. 4D (TGR1 receptor binding) Table 9).

IC50 [nM]	Binder
380	B2
82	B3
230	B4
64	B5
59	B6

Each binder was assayed against human TGR1 (NMUR2) (human) (assay: competition with 125I-NMU8, human TGR1/CHO membrane fraction, filter binding).
Method: as §1, §2

IC50 [nM]	Binder
7.9	B7
560	B8
4.3	B9
320	B10
110	B11
420	B12
9.4	B13
210	B14
730	B15
11	B16
1.9	B17
11	B18
120	B19
26	B20
2.5	B21
6.9	B22
9.1	B23
22	B24
32	B25
54	B26
4.1	B27
0.089	B28
66	B29

Biological target: T1, human FM3 (NMUR1)
Experiment: competition with 125I-NMU8, human FM3/CHO membrane fraction, filter binding
Method: as §1, §2

IC50 [nM]	Binder
7.3	B7
330	B8
4.5	B9
210	B10
75	B11
280	B12
6.4	B30
6.7	B13
270	B14
380	B15
11	B16
2.3	B17
11	B18
130	B19
51	B20
2.4	B21
6.3	B22
18	B23
18	B24
7	B25
60	B26
7.5	B27
0.19	B28
5.7	B29
